B1: Acyl carrier protein (Escherichia coli (strain K12)), P0A6A8 (parent)
chain: MSTIEERVKKIIGEQLGVKQEEVTNNASFVEDLGADSLDTVELVMALEEEFDTEIPDEEAEKITTVQAAIDYINGHQA
partner: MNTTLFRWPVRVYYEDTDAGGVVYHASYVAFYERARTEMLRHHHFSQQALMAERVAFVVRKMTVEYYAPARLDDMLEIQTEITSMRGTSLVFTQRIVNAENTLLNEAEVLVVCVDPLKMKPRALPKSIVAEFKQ

Variants of: B1
Settings: with ybgc_ecoli ybgC
For S37C, the “effect of a mutation on the interaction” value was “disrupting interaction”.
